Data published in patent US20250361326A1 (Hoffmann-La Roche, published 2025).

T1: VEGF (UniProt P15692-9 27-147)
T1 construct: also called VEGF121
T1 sequence (looked up): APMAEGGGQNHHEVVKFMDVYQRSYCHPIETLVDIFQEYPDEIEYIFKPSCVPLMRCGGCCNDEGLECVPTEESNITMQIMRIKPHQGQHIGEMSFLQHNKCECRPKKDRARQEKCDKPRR


Assays:
VEGF [1] = target: T1, VEGF; experiment: bridging ELISA of exchange reaction mix, 1.3 µM input; VEGF coated, biocytinamid-Cy5 detection; highest value = 100%; binder has bio arm, no VEGF arm
VEGF [2] = target: T1, VEGF; experiment: bridging ELISA of exchange reaction mix, 1.3 µM input; VEGF coated, digoxygenin-Cy5 detection; highest value = 100%; binder has neither arm
VEGF [3] = target: T1, VEGF; experiment: bridging ELISA, VEGF coated, biocytinamid-Cy5 detection; binder has bio arm, no VEGF arm
VEGF [4] = target: T1, VEGF; experiment: bridging ELISA, VEGF coated, biocytinamid-Cy5 detection; binder has bio and PDGF arms, no VEGF arm
VEGF [5] = target: T1, VEGF; experiment: bridging ELISA of exchange reaction mix, 1.3 µM input; VEGF coated, digoxygenin-Cy5 detection; highest value = 100%; binder has dig arm, no VEGF arm
VEGF [6] = target: T1, VEGF; experiment: bridging ELISA, VEGF coated, biocytinamid-Cy5 or digoxygenin-Cy5 detection; binder has bio and dig arms, no VEGF arm
VEGF [7] = target: T1, VEGF; experiment: bridging ELISA, VEGF coated, digoxygenin-Cy5 detection; binder has dig arm, no VEGF arm
VEGF [8] = target: T1, VEGF; experiment: bridging ELISA of exchange reaction mix, 1.3 µM input; VEGF coated, biocytinamid-Cy5 detection; highest value = 100%; binder has neither arm
VEGF [9] = target: T1, VEGF; experiment: bridging ELISA, VEGF coated, digoxygenin-Cy5 detection; binder has dig and PDGF arms, no VEGF arm

| Binder | relative signal intensity (VEGF [1]) | relative signal intensity (VEGF [2]) | relative signal intensity (VEGF [5]) | relative signal intensity (VEGF [8]) | other results |
| --- | --- | --- | --- | --- | --- |
| anti-bio/anti-fluos bispecific antibody (exchange reaction: bio MHCFcRP-knob-E357K row x fluos MHCFcRP-hole-K370E column) (bispecific antibody, human IgG1, kappa, Product of the 2/3-IgG exchange reaction, tested as reaction mix; human IgG1 knob-into-hole format; also called bio/fluos bsAb) heavy 1: not shown light 1: DIQMTQSPSSLSASVGDRVTITCRASGNIHNYLSWYQQKPGKVPKLLIYSAKTLADGVPSRFSGSGSGTDFTLTISSLQPEDVATYYCQHFWSSIYTFGQGTKLEIKRTVAAPSVFIFPPSDEQLKSGTASVVCLLNNFYPREAKVQWKVDNALQSGNSQESVTEQDSKDSTYSLSSTLTLSKADYEKHKVYACEVTHQGLSSPVTKSFNRGEC heavy 2: not shown light 2: DIVMTQTPLSLSVTPGQPASISCKSSQSLVHSNGNTYLRWYLQKPGQSPKVLIYKVSNRVSGVPDRFSGSGSGTDFTLKISRVEAEDVGVYYCSQSTHVPWTFGQGTKLEIKRTVAAPSVFIFPPSDEQLKSGTASVVCLLNNFYPREAKVQWKVDNALQSGNSQESVTEQDSKDSTYSLSSTLTLSKADYEKHKVYACEVTHQGLSSPVTKSFNRGEC | 9% | 7.2% | – | – | binding result (VEGF [3]): no binding (tested: 1.3 µM input molecule concentration) |
| anti-bio/anti-dig bispecific antibody (exchange reaction: bio MHCFcRP-knob-E357K row x dig MHCFcRP-hole-K370E column) (bispecific antibody, human IgG1, not shown: small tags and cut ends, Product of the 2/3-IgG exchange reaction, tested as reaction mix; human IgG1 knob-into-hole format; also called bio/dig bsAb) heavy 1: not shown light 1: DIQMTQSPSSLSASVGDRVTITCRASGNIHNYLSWYQQKPGKVPKLLIYSAKTLADGVPSRFSGSGSGTDFTLTISSLQPEDVATYYCQHFWSSIYTFGQGTKLEIKRTVAAPSVFIFPPSDEQLKSGTASVVCLLNNFYPREAKVQWKVDNALQSGNSQESVTEQDSKDSTYSLSSTLTLSKADYEKHKVYACEVTHQGLSSPVTKSFNRGEC heavy 2: QVQLVESGGGLVKPGGSLRLSCAASGFTFSDYAMSWIRQAPGKGLEWVSSINIGATYIYYADSVKGRFTISRDNAKNSLYLQMNSLRAEDTAVYYCARPGSPYEYDKAYYSMAYWGQGTTVTVSSASTKGPSVFPLAPSSKSTSGGTAALGCLVKDYFPEPVTVSWNSGALTSGVHTFPAVLQSSGLYSLSSVVTVPSSSLGTQTYICNVNHKPSNTKVDKKVEPKSC light 2: not shown | 9.3% | – | 6.2% | – | binding result (VEGF [6]): no binding (tested: 1.3 µM input molecule concentration) |
| anti-dig/anti-bio bispecific antibody (exchange reaction: dig MHCFcRP-knob-E357K row x bio MHCFcRP-hole-K370E column) (bispecific antibody, human IgG1, not shown: small tags and cut ends, Product of the 2/3-IgG exchange reaction, tested as reaction mix; human IgG1 knob-into-hole format; also called dig/bio bsAb) heavy 1: QVQLVESGGGLVKPGGSLRLSCAASGFTFSDYAMSWIRQAPGKGLEWVSSINIGATYIYYADSVKGRFTISRDNAKNSLYLQMNSLRAEDTAVYYCARPGSPYEYDKAYYSMAYWGQGTTVTVSSASTKGPSVFPLAPSSKSTSGGTAALGCLVKDYFPEPVTVSWNSGALTSGVHTFPAVLQSSGLYSLSSVVTVPSSSLGTQTYICNVNHKPSNTKVDKKVEPKSC light 1: not shown heavy 2: not shown light 2: DIQMTQSPSSLSASVGDRVTITCRASGNIHNYLSWYQQKPGKVPKLLIYSAKTLADGVPSRFSGSGSGTDFTLTISSLQPEDVATYYCQHFWSSIYTFGQGTKLEIKRTVAAPSVFIFPPSDEQLKSGTASVVCLLNNFYPREAKVQWKVDNALQSGNSQESVTEQDSKDSTYSLSSTLTLSKADYEKHKVYACEVTHQGLSSPVTKSFNRGEC | 9% | – | 6.2% | – | binding result (VEGF [6]): no binding (tested: 1.3 µM input molecule concentration) |
| anti-fluos/anti-bio bispecific antibody (exchange reaction: fluos MHCFcRP-knob-E357K row x bio MHCFcRP-hole-K370E column) (bispecific antibody, human IgG1, kappa, Product of the 2/3-IgG exchange reaction, tested as reaction mix; human IgG1 knob-into-hole format; also called fluos/bio bsAb) heavy 1: not shown light 1: DIVMTQTPLSLSVTPGQPASISCKSSQSLVHSNGNTYLRWYLQKPGQSPKVLIYKVSNRVSGVPDRFSGSGSGTDFTLKISRVEAEDVGVYYCSQSTHVPWTFGQGTKLEIKRTVAAPSVFIFPPSDEQLKSGTASVVCLLNNFYPREAKVQWKVDNALQSGNSQESVTEQDSKDSTYSLSSTLTLSKADYEKHKVYACEVTHQGLSSPVTKSFNRGEC heavy 2: not shown light 2: DIQMTQSPSSLSASVGDRVTITCRASGNIHNYLSWYQQKPGKVPKLLIYSAKTLADGVPSRFSGSGSGTDFTLTISSLQPEDVATYYCQHFWSSIYTFGQGTKLEIKRTVAAPSVFIFPPSDEQLKSGTASVVCLLNNFYPREAKVQWKVDNALQSGNSQESVTEQDSKDSTYSLSSTLTLSKADYEKHKVYACEVTHQGLSSPVTKSFNRGEC | 10.2% | 6.5% | – | – | binding result (VEGF [3]): no binding (tested: 1.3 µM input molecule concentration) |
| anti-dig/anti-PDGF bispecific antibody (exchange reaction: dig MHCFcRP-knob-E357K row x PDGF MHCFcRP-hole-K370E column) (bispecific antibody, human IgG1, not shown: small tags and cut ends, Product of the 2/3-IgG exchange reaction, tested as reaction mix; human IgG1 knob-into-hole format; also called dig/PDGF bsAb) heavy 1: QVQLVESGGGLVKPGGSLRLSCAASGFTFSDYAMSWIRQAPGKGLEWVSSINIGATYIYYADSVKGRFTISRDNAKNSLYLQMNSLRAEDTAVYYCARPGSPYEYDKAYYSMAYWGQGTTVTVSSASTKGPSVFPLAPSSKSTSGGTAALGCLVKDYFPEPVTVSWNSGALTSGVHTFPAVLQSSGLYSLSSVVTVPSSSLGTQTYICNVNHKPSNTKVDKKVEPKSC light 1: not shown heavy 2: EVQLVESGGGLVQPGGSLRLSCAASGFTFSSYWMSWVRQAPEKGLEWVSTISDGGGLTYYADSVKGRFTISRDNAKNSLYLQMNSLRAEDTAVYYCAESGGYTDWLFGYWGQGTLVTVSSASTKGPSVFPLAPSSKSTSGGTAALGCLVKDYFPEPVTVSWNSGALTSGVHTFPAVLQSSGLYSLSSVVTVPSSSLGTQTYICNVNHKPSNTKVDKKVEPKSC light 2: not shown | – | – | 7% | 9.9% | binding result (VEGF [9]): no binding (tested: 1.3 µM input molecule concentration) |
| anti-PDGF/anti-dig bispecific antibody (exchange reaction: PDGF MHCFcRP-knob-E357K row x dig MHCFcRP-hole-K370E column) (bispecific antibody, human IgG1, not shown: small tags and cut ends, Product of the 2/3-IgG exchange reaction, tested as reaction mix; human IgG1 knob-into-hole format; also called PDGF/dig bsAb) heavy 1: EVQLVESGGGLVQPGGSLRLSCAASGFTFSSYWMSWVRQAPEKGLEWVSTISDGGGLTYYADSVKGRFTISRDNAKNSLYLQMNSLRAEDTAVYYCAESGGYTDWLFGYWGQGTLVTVSSASTKGPSVFPLAPSSKSTSGGTAALGCLVKDYFPEPVTVSWNSGALTSGVHTFPAVLQSSGLYSLSSVVTVPSSSLGTQTYICNVNHKPSNTKVDKKVEPKSC light 1: not shown heavy 2: QVQLVESGGGLVKPGGSLRLSCAASGFTFSDYAMSWIRQAPGKGLEWVSSINIGATYIYYADSVKGRFTISRDNAKNSLYLQMNSLRAEDTAVYYCARPGSPYEYDKAYYSMAYWGQGTTVTVSSASTKGPSVFPLAPSSKSTSGGTAALGCLVKDYFPEPVTVSWNSGALTSGVHTFPAVLQSSGLYSLSSVVTVPSSSLGTQTYICNVNHKPSNTKVDKKVEPKSC light 2: not shown | – | – | 5.9% | 9.2% | binding result (VEGF [9]): no binding (tested: 1.3 µM input molecule concentration) |

Further lines, with some results ahead:

| relative signal intensity (VEGF [1]) | relative signal intensity (VEGF [2]) | relative signal intensity (VEGF [5]) | relative signal intensity (VEGF [8]) | Binder | other results |
| --- | --- | --- | --- | --- | --- |
| 10.5% | 6% | – | – | anti-PDGF/anti-bio bispecific antibody (exchange reaction: PDGF MHCFcRP-knob-E357K row x bio MHCFcRP-hole-K370E column) (bispecific antibody, human IgG1, not shown: small tags and cut ends, Product of the 2/3-IgG exchange reaction, tested as reaction mix; human IgG1 knob-into-hole format; also called PDGF/bio bsAb) heavy 1: EVQLVESGGGLVQPGGSLRLSCAASGFTFSSYWMSWVRQAPEKGLEWVSTISDGGGLTYYADSVKGRFTISRDNAKNSLYLQMNSLRAEDTAVYYCAESGGYTDWLFGYWGQGTLVTVSSASTKGPSVFPLAPSSKSTSGGTAALGCLVKDYFPEPVTVSWNSGALTSGVHTFPAVLQSSGLYSLSSVVTVPSSSLGTQTYICNVNHKPSNTKVDKKVEPKSC light 1: not shown heavy 2: not shown light 2: DIQMTQSPSSLSASVGDRVTITCRASGNIHNYLSWYQQKPGKVPKLLIYSAKTLADGVPSRFSGSGSGTDFTLTISSLQPEDVATYYCQHFWSSIYTFGQGTKLEIKRTVAAPSVFIFPPSDEQLKSGTASVVCLLNNFYPREAKVQWKVDNALQSGNSQESVTEQDSKDSTYSLSSTLTLSKADYEKHKVYACEVTHQGLSSPVTKSFNRGEC | binding result (VEGF [4]): no binding (tested: 1.3 µM input molecule concentration) |
| 10.1% | 6.1% | – | – | anti-bio/anti-PDGF bispecific antibody (exchange reaction: bio MHCFcRP-knob-E357K row x PDGF MHCFcRP-hole-K370E column) (bispecific antibody, human IgG1, not shown: small tags and cut ends, Product of the 2/3-IgG exchange reaction, tested as reaction mix; human IgG1 knob-into-hole format; also called bio/PDGF bsAb) heavy 1: not shown light 1: DIQMTQSPSSLSASVGDRVTITCRASGNIHNYLSWYQQKPGKVPKLLIYSAKTLADGVPSRFSGSGSGTDFTLTISSLQPEDVATYYCQHFWSSIYTFGQGTKLEIKRTVAAPSVFIFPPSDEQLKSGTASVVCLLNNFYPREAKVQWKVDNALQSGNSQESVTEQDSKDSTYSLSSTLTLSKADYEKHKVYACEVTHQGLSSPVTKSFNRGEC heavy 2: EVQLVESGGGLVQPGGSLRLSCAASGFTFSSYWMSWVRQAPEKGLEWVSTISDGGGLTYYADSVKGRFTISRDNAKNSLYLQMNSLRAEDTAVYYCAESGGYTDWLFGYWGQGTLVTVSSASTKGPSVFPLAPSSKSTSGGTAALGCLVKDYFPEPVTVSWNSGALTSGVHTFPAVLQSSGLYSLSSVVTVPSSSLGTQTYICNVNHKPSNTKVDKKVEPKSC light 2: not shown | binding result (VEGF [4]): no binding (tested: 1.3 µM input molecule concentration) |
| – | – | 6.3% | 9.4% | anti-fluos/anti-dig bispecific antibody (exchange reaction: fluos MHCFcRP-knob-E357K row x dig MHCFcRP-hole-K370E column) (bispecific antibody, human IgG1, not shown: small tags and cut ends, Product of the 2/3-IgG exchange reaction, tested as reaction mix; human IgG1 knob-into-hole format; also called fluos/dig bsAb) heavy 1: not shown light 1: DIVMTQTPLSLSVTPGQPASISCKSSQSLVHSNGNTYLRWYLQKPGQSPKVLIYKVSNRVSGVPDRFSGSGSGTDFTLKISRVEAEDVGVYYCSQSTHVPWTFGQGTKLEIKRTVAAPSVFIFPPSDEQLKSGTASVVCLLNNFYPREAKVQWKVDNALQSGNSQESVTEQDSKDSTYSLSSTLTLSKADYEKHKVYACEVTHQGLSSPVTKSFNRGEC heavy 2: QVQLVESGGGLVKPGGSLRLSCAASGFTFSDYAMSWIRQAPGKGLEWVSSINIGATYIYYADSVKGRFTISRDNAKNSLYLQMNSLRAEDTAVYYCARPGSPYEYDKAYYSMAYWGQGTTVTVSSASTKGPSVFPLAPSSKSTSGGTAALGCLVKDYFPEPVTVSWNSGALTSGVHTFPAVLQSSGLYSLSSVVTVPSSSLGTQTYICNVNHKPSNTKVDKKVEPKSC light 2: not shown | binding result (VEGF [7]): no binding (tested: 1.3 µM input molecule concentration) |
